Source: patent publication US20160279215A1, “NOVEL PEPTIDES AND COMBINATION OF PEPTIDES FOR USE IN IMMUNOTHERAPY AGAINST VARIOUS TUMORS” (immatics biotechnologies GmbH, priority 2015, published 2016)

Target: T1, HLA-A*02:01 (Homo sapiens, UniProt P04439, D140Y/D185E/D98H/E176V/E277Q/G131W/G231S/I119V/I121R/I166T/I218V/L300P/L318F/N151K/N90K/P208A/P217A/Q86G/Q94H/R138H/R169H/T345S)
T1 construct: made in house
Test: MHC binding assay: UV-ligand exchange with β2m ELISA (peptide exchange yield)
Details: binding to HLA-A*02:01 evaluated by peptide exchange yield (UV-ligand exchange, β2m ELISA)
From the text: Candidate peptides for T cell based therapies according to the present invention were further tested for their MHC binding capacity (affinity). The individual peptide-MHC complexes were produced by UV-ligand exchange, where a UV-sensitive peptide is cleaved upon UV-irradiation, and exchanged with the peptide of interest as analyzed. Only peptide candidates that can effectively bind and stabilize the peptide-receptive MHC molecules prevent dissociation of the MHC complexes. To determine the yield of the exchange reaction, an ELISA was performed based on the detection of the light chain (β2m) of stabilized MHC complexes. The assay was performed as generally described in Rodenko et al. (Rodenko et al., 2006).
96 well MAXISorp plates (NUNC) were coated over night with 2 ug/ml streptavidin in PBS at room temperature, washed 4× and blocked for 1 h at 37° C. in 2% BSA containing blocking buffer. Refolded HLA-A*02:01/MLA-001 monomers served as standards, covering the range of 15-500 ng/ml. Peptide-MHC monomers of the UV-exchange reaction were diluted 100 fold in blocking buffer. Samples were incubated for 1 h at 37° C., washed four times, incubated with 2 ug/ml HRP conjugated anti-β2m for 1 h at 37° C., washed again and detected with TMB solution that is stopped with […]. Absorption was measured at 450 nm. Candidate peptides that show a high exchange yield (preferably higher than 50%, most preferred higher than 75%) are generally preferred for a generation and production of antibodies or fragments thereof, and/or T cell receptors or fragments thereof, as they show sufficient avidity to the MHC molecules and prevent dissociation of the MHC complexes.

Substance	Peptide exchange
90 (AILNVDEKNQV; listed as Homo sapiens) [compound 90]	++ (≧20% = ++)
94 (YLDEVAFML; listed as Homo sapiens) [compound 94]	+++ (≧50 = +++)
105 (AMLASQTEA; listed as Homo sapiens) [compound 105]	++ (≧20% = ++)
106 (VLLGSVVIFA; listed as Homo sapiens) [compound 106]	++ (≧20% = ++)
109 (ILGSFELQL; listed as Homo sapiens) [compound 109]	+++ (≧50 = +++)
113 (FLFLKEVKV; listed as Homo sapiens) [compound 113]	++ (≧20% = ++)
114 (LLFPSDVQTL; listed as Homo sapiens) [compound 114]	++ (≧20% = ++)
116 (ALLSSVAEA; listed as Homo sapiens) [compound 116]	++ (≧20% = ++)
119 (SLIEESEEL; listed as Homo sapiens) [compound 119]	++ (≧20% = ++)
122 (SIIDTELKV; listed as Homo sapiens) [compound 122]	+++ (≧50 = +++)
124 (ALLLRLFTI; listed as Homo sapiens) [compound 124]	++ (≧20% = ++)
126 (QLREAFEQL; listed as Homo sapiens) [compound 126]	+++ (≧50 = +++)
128 (SILTNISEV; listed as Homo sapiens) [compound 128]	++ (≧20% = ++)
130 (QLYGSAITL; listed as Homo sapiens) [compound 130]	+++ (≧50 = +++)
131 (SLYPHFTLL; listed as Homo sapiens) [compound 131]	+++ (≧50 = +++)
134 (SLYKSFLQL; listed as Homo sapiens) [compound 134]	++ (≧20% = ++)
136 (LLWDAPAKC; listed as Homo sapiens) [compound 136]	+++ (≧50 = +++)
137 (KLIYKDLVSV; listed as Homo sapiens) [compound 137]	++ (≧20% = ++)
138 (GIINKLVTV; listed as Homo sapiens) [compound 138]	++ (≧20% = ++)
141 (NIDINNNEL; listed as Homo sapiens) [compound 141]	++ (≧20% = ++)
142 (LLDAAHASI; listed as Homo sapiens) [compound 142]	++ (≧20% = ++)
144 (FLISQTPLL; listed as Homo sapiens) [compound 144]	+++ (≧50 = +++)
147 (GLLSALENV; listed as Homo sapiens) [compound 147]	+++ (≧50 = +++)
154 (AIIKEIQTV; listed as Homo sapiens) [compound 154]	++ (≧20% = ++)
155 (TLDSYLKAV; listed as Homo sapiens) [compound 155]	++ (≧20% = ++)
161 (NLLDENVCL; listed as Homo sapiens) [compound 161]	++++ (≧75% = ++++)
162 (GLLGNLLTSL; listed as Homo sapiens) [compound 162]	+++ (≧50 = +++)
164 (MLIIRVPSV; listed as Homo sapiens) [compound 164]	+++ (≧50 = +++)
170 (FIAAVVEKV; listed as Homo sapiens) [compound 170]	++ (≧20% = ++)
173 (RLIDIYKNV; listed as Homo sapiens) [compound 173]	+++ (≧50 = +++)

The next lines start with the values.

Peptide exchange	Substance
++++ (≧75% = ++++)	84 (FLLEREQLL; listed as Homo sapiens) [compound 84]
++ (≧20% = ++)	85 (KLLDKPEQFL; listed as Homo sapiens) [compound 85]
+++ (≧50 = +++)	86 (SLFSNIESV; listed as Homo sapiens) [compound 86]
+++ (≧50 = +++)	87 (KLLSLLEEA; listed as Homo sapiens) [compound 87]
+++ (≧50 = +++)	88 (LLLPLELSLA; listed as Homo sapiens) [compound 88]
++ (≧20% = ++)	91 (LLPSIFLMV; listed as Homo sapiens) [compound 91]
++ (≧20% = ++)	93 (RLYGYFHDA; listed as Homo sapiens) [compound 93]
+++ (≧50 = +++)	95 (KLIDEDEPLFL; listed as Homo sapiens) [compound 95]
++ (≧20% = ++)	96 (ALDTTRHEL; listed as Homo sapiens) [compound 96]
+++ (≧50 = +++)	98 (FVQEKIPEL; listed as Homo sapiens) [compound 98]
+++ (≧50 = +++)	99 (TLFGIQLTEA; listed as Homo sapiens) [compound 99]
+++ (≧50 = +++)	100 (ALQSFEFRV; listed as Homo sapiens) [compound 100]
++ (≧20% = ++)	103 (YLADTVQKL; listed as Homo sapiens) [compound 103]
++ (≧20% = ++)	107 (RVLPGQAVTGV; listed as Homo sapiens) [compound 107]
+++ (≧50 = +++)	108 (FIANLPPELKA; listed as Homo sapiens) [compound 108]
++ (≧20% = ++)	110 (QIQGQVSEV; listed as Homo sapiens) [compound 110]
+++ (≧50 = +++)	111 (AQLEGKLVSI; listed as Homo sapiens) [compound 111]
+++ (≧50 = +++)	112 (ILAQDVAQL; listed as Homo sapiens) [compound 112]
++ (≧20% = ++)	115 (ILHGEVNKV; listed as Homo sapiens) [compound 115]
+ (≧10% = +)	123 (QTAPEEAFIKL; listed as Homo sapiens) [compound 123]
+++ (≧50 = +++)	125 (AALEVLAEV; listed as Homo sapiens) [compound 125]
++ (≧20% = ++)	129 (KMASKVTQV; listed as Homo sapiens) [compound 129]

Peptide exchange	Substance
+++ (≧50 = +++)	132 (ALLNNVIEV; listed as Homo sapiens) [compound 132]
++ (≧20% = ++)	133 (FLDGRPLTL; listed as Homo sapiens) [compound 133]
+++ (≧50 = +++)	139 (IILENIQSL; listed as Homo sapiens) [compound 139]
+++ (≧50 = +++)	140 (FLDSQITTV; listed as Homo sapiens) [compound 140]
+++ (≧50 = +++)	143 (MLWESIMRV; listed as Homo sapiens) [compound 143]
+++ (≧50 = +++)	145 (ALEEKLENV; listed as Homo sapiens) [compound 145]
++ (≧20% = ++)	146 (VVAAHLAGA; listed as Homo sapiens) [compound 146]
+++ (≧50 = +++)	148 (YLILSSHQL; listed as Homo sapiens) [compound 148]
++ (≧20% = ++)	149 (NMADGQLHQV; listed as Homo sapiens) [compound 149]
+++ (≧50 = +++)	150 (VLLDMVHSL; listed as Homo sapiens) [compound 150]
++ (≧20% = ++)	151 (DISKRIQSL; listed as Homo sapiens) [compound 151]
+++ (≧50 = +++)	153 (KLVELEHTL; listed as Homo sapiens) [compound 153]
+++ (≧50 = +++)	158 (YLDPLWHQL; listed as Homo sapiens) [compound 158]
+++ (≧50 = +++)	159 (QLGPVPVTI; listed as Homo sapiens) [compound 159]
+++ (≧50 = +++)	160 (TLQEWLTEV; listed as Homo sapiens) [compound 160]
++ (≧20% = ++)	163 (GLEERLYTA; listed as Homo sapiens) [compound 163]
+++ (≧50 = +++)	165 (SLLDYEVSI; listed as Homo sapiens) [compound 165]
+++ (≧50 = +++)	167 (LVVDEGSLVSV; listed as Homo sapiens) [compound 167]
+++ (≧50 = +++)	168 (VIFEGEPMYL; listed as Homo sapiens) [compound 168]
+++ (≧50 = +++)	169 (ALADLSVAV; listed as Homo sapiens) [compound 169]
++ (≧20% = ++)	171 (LLLLDVPTA; listed as Homo sapiens) [compound 171]
